Laboratory results reported in PMC6242696 (Cell, 2018).

T1: GDP/GTP carrier Ggc1 (containing the mutation C222S), C-terminal 6xHis-tag (Saccharomyces cerevisiae, C222S (stands in the printed letters))
T1 chain: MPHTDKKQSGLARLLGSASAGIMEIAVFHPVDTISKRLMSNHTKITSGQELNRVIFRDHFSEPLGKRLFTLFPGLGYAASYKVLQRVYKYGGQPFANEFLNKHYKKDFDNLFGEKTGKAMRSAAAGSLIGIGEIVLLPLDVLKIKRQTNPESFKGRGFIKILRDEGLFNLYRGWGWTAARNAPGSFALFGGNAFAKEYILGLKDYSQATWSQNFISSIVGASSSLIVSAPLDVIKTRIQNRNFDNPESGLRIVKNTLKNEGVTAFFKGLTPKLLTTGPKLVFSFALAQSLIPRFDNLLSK

T2: Tim10 M32K (subunit of the mutant complex) (Saccharomyces cerevisiae, UniProt P87108 2-93, M32K)
T2 sequence (looked up): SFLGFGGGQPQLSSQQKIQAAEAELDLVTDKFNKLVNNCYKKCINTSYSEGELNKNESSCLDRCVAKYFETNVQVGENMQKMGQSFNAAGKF

T3: Tim10 V29K (subunit of the mutant complex) (Saccharomyces cerevisiae, UniProt P87108 2-93, V29K)
T3 sequence (looked up): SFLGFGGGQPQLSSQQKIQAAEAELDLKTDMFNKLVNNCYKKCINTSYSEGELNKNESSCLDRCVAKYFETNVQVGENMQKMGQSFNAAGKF


What was measured:
[1] = target: T1, GDP/GTP carrier Ggc1 (containing the …); assay: SAXS with online Ni-NTA purification
[2] = target: Aac3(2TM), comprising transmembrane helices 2 and 3 (residues 50-180), N-terminal 6xHis-Tag; assay: AUC + other: diffusion-ordered NMR
[3] = target: T1, GDP/GTP carrier Ggc1 (containing the …); assay: AUC + other: diffusion-ordered NMR
[4] = target: T2, Tim10 M32K (subunit of the mutant …); assay: SEC
[5] = target: T3, Tim10 V29K (subunit of the mutant …); assay: SEC
SEC = target: the molecule itself; assay: SEC

Binder	stoichiometry N [1]	stoichiometry N [2]	stoichiometry N [3]	binding result [4]	binding result [5]	stoichiometry N (SEC)
TIM9⋅10 chaperone complex (hexamer of Tim9 and Tim10), wild type (complex, Saccharomyces cerevisiae) chain 1: MDALNSKEQQEFQKVVEQKQMKDFMRLYSNLVERCFTDCVNDFTTSKLTNKEQTCIMKCSEKFLKHSERVGQRFQEQNAALGQGLGR chain 2: GSFLGFGGGQPQLSSQQKIQAAEAELDLVTDMFNKLVNNCYKKCINTSYSEGELNKNESSCLDRCVAKYFETNVQVGENMQKMGQSFNAAGKF	2 TIM9⋅10 hexamers per Ggc1	1 TIM9⋅10 hexamer per precursor chain	2 TIM9⋅10 hexamers per precursor protein			
Tim9 (individual subunit) (natural protein, Saccharomyces cerevisiae) MDALNSKEQQEFQKVVEQKQMKDFMRLYSNLVERCFTDCVNDFTTSKLTNKEQTCIMKCSEKFLKHSERVGQRFQEQNAALGQGLGR				binds	binds	2
